Data: US8491891B2, “Human beta-glucuronidase mutants with elevated enzymatic activity under physiological conditions and method for identifying such” (Academia Sinica, priority 2008, dated 2013)

Assay: Enzymatic activity of mouse versus human β-glucuronidase at pH 7.0
Format: biochemical
From the text: Each of the cDNAs encoding human and mouse beta-glucuronidases (Genbank accession no. NM_000181, 03-SEP-2009 and Genbank accession no. J02836.1, 29-APR-1996) was fused to the juxtamembrane Ig-like extracellular domain, transmembrane domain and cytoplasmic tail of murine B7-1. See Chen et al., Cancer Gene Ther 14:187-200 (2007).

B1: Mouse β-glucuronidase: mouse beta-glucuronidase, Genbank accession no. J02836.1 (protein)
chain: LKGGMLFPKESPSRELKALDGLWHFRADLSNNRLQGFEQQWYRQPLRESGPVLDMPVPSSFNDITQEAALRDFIGWVWYEREAILPRRWTQDTDMRVVLRINSAHYYAVVWVNGIHVVEHEGGHLPFEADISKLVQSGPLTTCRITIAINNTLTPHTLPPGTIVYKTDTSMYPKGYFVQDTSFDFFNYAGLHRSVVLYTTPTTYIDDITVITNVEQDIGLVTYWISVQGSEHFQLEVQLLDEGGKVVAHGTGNQGQLQVPSANLWWPYLMHEHPAYMYSLEVKVTTTESVTDYYTLPIGIRTVAVTKSKFLINGKPFYFQGVNKHEDSDIRGKGFDWPLLVKDFNLLRWLGANSFRTSHYPYSEEVLQLCDRYGIVVIDECPGVGIVLPQSFGNESLRHHLEVMEELVRRDKNHPAVVMWSVANEPSSALKPAAYYFKTLITHTKALDLTRPVTFVSNAKYDADLGAPYVDVICVNSYFSWYHDYGHLEVIQPQLNSQFENWYKTHQKPIIQSEYGADAIPGIHEDPPRMFSEEYQKAVLENYHSVLDQKRKEYVVGELIWNFADFMTNQSPLRVIGNKKGIFTRQRQPKTSAFILRERYWRIANETGGHGSGPRTQCFGSRPFTFKADFSTPNITESGNPSADTKRITCFASGGFPKPRFSWLENGRELPGINTTISQDPESELYTISSQLDFNTTRNHTIKCLIKYGDAHVSEDFTWEKPPEDPPDSKNTLVLFGAGFGAVITVVVIVVIIKCFCKHRSCFRRNEASRETNNSLTFGPEEALAEQTVFL
modifications: left off: small tags and cut ends
  Enzymatic activity compared with human β-glucuronidase: about three-fold greater
